1 substance from article PMC10896300 can be followed below.

This assay addresses Recombinant 6×His-tagged CrMCA-II (Chlamydomonas reinhardtii). Nature of the assay: SEC; purified rCrMCA-II in buffer without DTT and Ca2+; with 1 mM DTT in the SEC buffer the dimer-to-monomer ratio decreased. On the technique in general: SEC sorts molecules by how far they enter the pores of the column.

One may read the stoichiometry N as the number of molecules, sites or subunits per partner or assembly. Turning to “Recombinant 6×His-tagged CrMCA-II (enzyme)”, the stoichiometry N amounted to 2.
